Experimental data taken from publication PMC11182334 (Cell, 2024).

How the values were obtained:
[1] = molecular target: recombinant untagged VP6 of bluetongue virus, wild type (bluetongue virus (serotype of the cDNA not stated)); experiment: cryo-EM structure
SEC + AUC = molecular target: the molecule itself; experiment: SEC + AUC
cryo-EM structure = molecular target: the molecule itself; experiment: cryo-EM structure
[2] = molecular target: T1, VP3 (WT, co-expressed with VP6);VP6 (WT) (Bluetongue virus;Bluetongue virus, UniProt D8V886;D8V892 1-901;1-329, |); experiment: cryo-EM
T1 sequence 1: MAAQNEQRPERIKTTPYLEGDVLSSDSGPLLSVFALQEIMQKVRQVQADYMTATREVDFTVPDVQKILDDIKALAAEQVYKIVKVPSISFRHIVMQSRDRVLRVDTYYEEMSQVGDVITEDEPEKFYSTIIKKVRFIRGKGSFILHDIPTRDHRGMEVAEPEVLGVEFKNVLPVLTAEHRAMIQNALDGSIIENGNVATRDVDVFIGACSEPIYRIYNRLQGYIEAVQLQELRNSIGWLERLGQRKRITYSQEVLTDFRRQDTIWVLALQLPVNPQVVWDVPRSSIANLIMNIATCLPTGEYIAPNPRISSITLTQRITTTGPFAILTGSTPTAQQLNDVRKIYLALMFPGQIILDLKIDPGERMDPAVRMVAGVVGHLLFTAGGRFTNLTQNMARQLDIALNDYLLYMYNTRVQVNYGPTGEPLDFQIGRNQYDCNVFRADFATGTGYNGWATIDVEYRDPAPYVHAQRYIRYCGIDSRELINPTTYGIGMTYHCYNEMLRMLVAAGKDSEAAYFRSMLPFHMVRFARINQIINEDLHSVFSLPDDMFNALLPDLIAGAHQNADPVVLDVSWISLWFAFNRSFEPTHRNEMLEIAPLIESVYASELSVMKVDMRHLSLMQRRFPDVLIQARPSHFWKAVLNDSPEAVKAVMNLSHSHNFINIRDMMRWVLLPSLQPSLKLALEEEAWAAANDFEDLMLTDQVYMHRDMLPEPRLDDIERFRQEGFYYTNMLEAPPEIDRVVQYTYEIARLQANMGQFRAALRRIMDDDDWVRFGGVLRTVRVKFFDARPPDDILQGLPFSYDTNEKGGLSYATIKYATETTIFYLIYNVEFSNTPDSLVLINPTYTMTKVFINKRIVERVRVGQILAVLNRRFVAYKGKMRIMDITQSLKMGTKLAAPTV
T1 sequence 2: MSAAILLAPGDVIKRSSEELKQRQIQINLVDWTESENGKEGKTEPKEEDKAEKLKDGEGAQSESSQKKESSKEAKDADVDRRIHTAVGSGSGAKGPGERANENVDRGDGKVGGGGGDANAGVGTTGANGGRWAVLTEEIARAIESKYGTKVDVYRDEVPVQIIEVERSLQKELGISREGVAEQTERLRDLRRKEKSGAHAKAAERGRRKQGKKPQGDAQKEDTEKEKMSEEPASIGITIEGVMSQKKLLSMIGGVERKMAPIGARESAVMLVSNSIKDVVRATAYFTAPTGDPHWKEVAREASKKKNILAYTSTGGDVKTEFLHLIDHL

[3] = molecular target: T1, VP3 (WT, co-expressed with VP6);VP6 (WT); experiment: EMSA

## recombinant untagged VP6 of bluetongue virus, wild type (natural protein)
[1]
  stoichiometry N: 5

B1: recombinant His-tagged VP3 of bluetongue virus, wild type (natural protein)
chain: MAAQNEQRPERIKTTPYLEGDVLSSDSGPLLSVFALQEIMQKVRQVQADYMTATREVDFTVPDVQQILDDIKALAAAQVYKIVKVPSTSFRHIVTQSRDRVLRVDTYYEEMSQVGDVITEDEPEKFYSTIIKKVRFIRGKGSFILHDIPARDHRGMEVAEPEVLGVEFKNVLPVLTAEHRAMIQNALDGSIIENGNVATRDVDVFIGACSEPFYRIYNRFQGYIEAVQLQELRNSIGWLERLGQRKRITYSQEVLTDFRRQDMIWVLALQLPVNPQVVWDVPRSSIANLIMNIATCLPTGEYIAPNPRISSITLTQRITTTGPFAILTGSTPTAQQLNDVRKIYLALMFPGQIILDLKIDPGERMDPAVRMVAGVVGHLLFTAGGRFTNLTQNMARQLDIALNDYLLYMYNTRVQVNYGPTGEPLDFQIGRNQYDCNVFRADFATGTGYNGWATIDVEYRDPAPYVHAQRYIRYCGIDSRELINPTTYGIGMTYHCYNEMLRMLVAAGKDSEAAYFRSMLPFHMVRFARINQIINEDLHSVFSLPDDMFNALLPDLIAGAHQNADPVVLDVSWISLWFAFNRSFEPTHRNEMLEIAPLIESVYASELSVMKVDMRHLSLMQRRFPDVLIQARPSHFWKAVLNDSPEAVKAVMNLSHSHNFINIRDMMRWVLLPSLQPSLKLVLEEEAWAAANDFEDLMLTDQVYMHRDMLPEPRLDDIERFRQEGFYYTNMLEAPPEIDRVVQYTYEIARLQANMGQFRAALRRIMDDDDWIGFGGVLRTVRVKFFDARPPDDILQGLPFSYDTNEKGGLSYATIKYATETTIFYLIYNVEFSNTPDSLVLINPTYTMTKVFINKRIVERVRVGQILAVLNRRFVAYKGKMRIMDITQSLKMGTKLAAPTV
SEC + AUC
  stoichiometry N: ~4
cryo-EM structure
  stoichiometry N: 4

B2: 40 nt poly-U ssRNA (ssRNA)
RNA: UUUUUUUUUUUUUUUUUUUUUUUUUUUUUUUUUUUUUUUU
[2]
  binding result: binds

B3: Cy5-labeled 16 nt ssRNA (ssRNA)
RNA: GUUAAAAAAUCGCAUA
[3]
  apparent K (half saturation): 192 nM
